We go through four molecules from patent US20110300113A1, “Death Receptor CD95 Controls Neurogenesis of Adult Neural Stem Cells in Vivo and in Vitro” (DEUTSCHES KREBSFORSCHUNGSZENTRUM, priority 2006, published 2011).

Assay [1] has as its target CD95 (APO-1 or Fas), mouse, endogenous in neural stem cells / brain tissue (mouse) (UniProt P25446). The assay can be described thus: cell-based or functional assay.
The subject of assay [2] is GSK3β and AKT phosphorylation. The assay can be described thus: Western blot of GSK3β and AKT phosphorylation in NSCs. Conditions: inhibitor pretreatment. Type of assay: cell-based, mouse. Here is the method: Western Blots. Phosphorylated GSK3β (P-Ser9-GSK3β, 1:1000), phosphorylated AKT (P-Ser473-KT, 1:1000), total AKT (T-AKT, 1:1000), Src family kinases (Src, 1:1000), cleaved caspase 3 (1:250), total β-Catenin (1:1000) and phosphorylated src (Tyr416) were purchased from Cell Signaling/New England Biolabs. pp60(c-Src) antibody was purchased from Upstate. Antibody against total GSK3β (T-GSK3β, 1:1000), were purchased from Santa Cruz. The PI3K inhibitor […] (25 μM) and the Src family kinase inhibitor PP2 (20 μM) were purchased from Calbiochem. Cells were preincubated with inhibitors 30 minutes (LY 294002) and 1 hour (PP2) prior to treatment. Cells were lysed for further biochemical analysis. Protein extraction and immunoblotting was performed as previously described.
(In general: In western blotting, separated proteins are transferred to a membrane and probed.)

The test system of a further assay is SVZ NSCs. The assay can be described thus: β-III-tubulin expression in adult SVZ neural progenitor cells (flow cytometry). Type of assay: cell-based, mouse. Conditions: exogenous BDNF alone; data not shown. The source says: Lentiviral infections. SVZ NSCs were infected with the lentiviral vector pEIGW and pEIGW-GSK3βS9A at a multiplicity of infection (MOI) of 5. The plasmids were constructed by replacing the eGFP sequence between the EF1α promotor and the WPRE element in pWPTS-eGFP with the IRES-eGFP cassette form pIRES2-eGFP (Clontech, Germany). The recombinant lentiviral vector pEIGW-GSK3βS9A was constructed using pcDNA3 HA-GSK3βS9A. This vector encodes a constitutively active GSK3β mutant containing a serine-to-alanine substitution at residue 9 (GSK3βS9A). Expression of all transgenes was confirmed in infected cells by FACS analysis of GFP expression. The percentage of infected cells was 70-90%.
siRNA. […] 48 h later pp60 src knockdown was assessed by Western Blot. At the same time, cells were stimulated with CD95L-T4 and analysed after 48 h for β-III-tubulin positive cells.
For staining of intracellular markers, cells were harvested, fixed with 4% PFA for 10 min on ice, washed and permeabilized using 0.1% Saponin (Sigma-Aldrich) in PBS with 10% FCS (SAP). […] Cells were washed again three times with SAP and analysed. […] To quantify DNA fragmentation, cells detached with trypsin were centrifuged, washed and fixed with 70% ethanol at −20° C. for 1 h. […] After final washings, all samples were analysed using a FACS-Calibur (Becton Dickinson) and CellQuest Software (Becton Dickinson). […]
(In general: A flow cytometer gives signals particle by particle.)

In another assay the test system is neural progenitor cells. The assay can be described thus: GFAP expression (glial differentiation) in neural progenitor cells. It counts as cell-based, mouse. Particulars: data not shown. Here is the method:
For staining of intracellular markers, cells were harvested, fixed with 4% PFA for 10 min on ice, washed and permeabilized using 0.1% Saponin (Sigma-Aldrich) in PBS with 10% FCS (SAP). Cells were incubated with primary antibody or isotype for 30 min on ice. Cells were washed three time with SAP and incubated with secondary antibody for 30 min on ice. Cells were washed again three times with SAP and analysed. Antibodies used were: anti β-III-tubulin (Chemicon) 1:100, anti GFAP (Chemicon) 1:100 and isotype mouse IgG1 (Sigma) 1:20. Secondary antibody was goat anti-mouse PE 1:100 (Dianova). To quantify DNA fragmentation, cells detached with trypsin were centrifuged, washed and fixed with 70% ethanol at −20° C. for 1 h. Fixed cells were resuspended in a hypotonic lysis buffer (0.1% sodium citrate and 0.1% Triton X-100) containing […] of propidium iodide, incubated at 4° C. overnight. After final washings, all samples were analysed using a FACS-Calibur (Becton Dickinson) and CellQuest Software (Becton Dickinson).
Mouse adult neural stem cell culture. NSCs were isolated as previously described^30. Briefly, 6 week old female C57BL6 mice were sacrificied and tissue from hippocampus, SVZ and spinal cord was dissected out. […]

For another assay, the system named is mouse adult SVZ NSCs. The assay can be described thus: Gene expression by quantitative real-time PCR in adult SVZ NSCs. It counts as cell-based. Particulars: 48 h after stimulation. On the procedure: Real-time Quantitative PCR. 24 h cells after plating cells were stimulated with 1 activation unit of CD95L-T4. After 48 h RNA was isolated using the RNeasy Mini Kit (Qiagen). Real-time quantitative PCR was carried out using Sybr Green core kits (Eurogentec) and Uracil-N-glycosylase (Eurogentec). For determining CD95L induction after global ischemia, the hippocampi were dissected out and stored in RNAlater reagent (Ambion). RNA was extracted using the RNeasy Mini Kit (Qiagen). Real-time quantitative PCR was carried out using Sybr Green core kits (Eurogentec) and Uracil-N-glycosylase (Eurogentec). Primers used for quantitative real-time PCR were designed using Primer 3 software (http://fokker.wi.mit.edu/cgi-bin/primer3/primer3_www.cgi).

Chain of CD95 (APO-1 or Fas), mouse, endogenous in neural stem cells / brain tissue (mouse) (P25446 22-327): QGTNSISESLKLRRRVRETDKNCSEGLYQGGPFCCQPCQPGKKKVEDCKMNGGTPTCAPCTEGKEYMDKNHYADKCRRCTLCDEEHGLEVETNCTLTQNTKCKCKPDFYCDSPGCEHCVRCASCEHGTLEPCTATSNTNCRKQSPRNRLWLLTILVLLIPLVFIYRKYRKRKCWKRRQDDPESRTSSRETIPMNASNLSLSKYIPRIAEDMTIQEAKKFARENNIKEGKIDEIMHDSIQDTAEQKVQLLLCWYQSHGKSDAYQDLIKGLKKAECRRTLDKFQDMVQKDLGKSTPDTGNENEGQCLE

For “mus musculus CD95-Ligand-T4 (mmCD95L-T4) (from UniProt P41047 140-279; P10104 458-484)”, in assay [1], the PI3K activity at 1 min after treatment with 1 U of CD95L-T4 (relative to untreated = 1) (fold of untreated) worked out at 1.38; the PI3K activity at 5 min after treatment with 1 U of CD95L-T4 (relative to untreated = 1) (fold of untreated) came to 1.53; the β-III-tubulin positive cells, NSCs with control siRNA, after CD95L-T4 turned out to be 18.1%; the β-III-tubulin positive cells, NSCs with transfection reagent only, after CD95L-T4 turned out to be 17.1%.

With `CC(C)(C)n1nc(-c2ccc(Cl)cc2)c2c(N)ncnc21` [PP2], in assay [2] (CD95-induced), the “phosphorylation of GSK3β” value is on record as “inhibited phosphorylation”. Besides, the “phosphorylation of AKT” value in assay [2] (induced by CD95L) is reported as “inhibited phosphorylation”.

B1: BDNF: brain-derived nerve factor, a neurotrophin (protein, UniProt P23560 19-247, looked up)
Neurotrophic factor BDNF …: APMKEANIRGQGGLAYPGVRTHGTLESVNGPKAGSRGLTSLADTFEHVIEELLDEDQKVRPNEENNKDADLYTSRVMLSSQVPLEPPLLFLLEEYKNYLDAANMSMRVRRHSDPARRGELSVCDSISEWVTAADKKTAVDMSGGTVTVLEKVPVSKGQLKQYFYETKCNPMGYTKEGCRGIDKRHWNSQCRTTQSYVRALTMDSKKRIGWRFIRIDTSCVCTLTIKRGR
As to B1, the β-III-tubulin expression entry in the assay on SVZ NSCs was “did not increase β-III-tubulin expression”.

B2: CNTF: inducer of astrocytic differentiation (protein, UniProt P26441 1-200, looked up)
Ciliary neurotrophic factor: MAFTEHSPLTPHRRDLCSRSIWLARKIRSDLTALTESYVKHQGLNKNINLDSADGMPVASTDQWSELTEAERLQENLQAYRTFHVLLARLLEDQQVHFTPTEGDFHQAIHTLLLQVAAFAYQIEELMILLEYKIPRNEADGMPINVGDGGLFEKKLWGLKVLQELSQWTVRSIHDLRFISSHQTGIPARGSHYIANNKKM
In the case of B2, the GFAP expression entry with neural progenitor cells is listed as “enhanced expression of GFAP”. For the same molecule, in the assay on mouse adult SVZ NSCs, the BDNF expression result is recorded as “induced”, the “Doublecortin like kinase1 (DCLK) expression” value was “no effect on DCLK expression”, the “Jagged1 mRNA levels” value is given as “decreased” and the “Neurogenin (Ngn1) expression” value is given as “almost complete loss of Ngn1 mRNA”.
